In patent publication US20090208500A1 (Genentech, published 2009):
Where a chain is given by its changes, count along the chain named. Values belong to the binder of their own block, whether it stands above or below them.

Legend:
[1] = target: T1, human FcγRIII (F158), low affinity isotype (human, UniProt P08637 17-208); experiment: FcγR binding ELISA; relative to 2H7 control cell line antibody (2 to 4% nonfucosylated)
T1 construct: Receptor captured on plates by anti-GST (clone 8E2.1.1); also called FcγRIII (F158 allele); FcγRIIIA (F158); not shown: GST tag implied by capture on anti-GST coated plates

[2] = target: T2, human FcγRIII (V158), high affinity isotype (human, UniProt P08637 17-208); experiment: as above
T2 construct: Receptor captured by anti-GST; construct not described; also called FcγRIII (V158 allele); FcγRIIIA (V158); not shown: GST tag implied by capture on anti-GST coated plates

[3] = target: T1, human FcγRIII (F158), low affinity …; experiment: FcγRIII binding ELISA; anti-GST captured receptor, IgG complexed with anti-kappa F(ab')2; relative activity
Description: (§1) MaxiSorp 96-well microwell plates (Nunc, Roskilde, Denmark) were coated with 2 μg/ml anti-GST (clone 8E2.1.1, Genentech), at 100 μl/well in 50 mM carbonate buffer, pH 9.6, at 4° C. overnight. Plates were washed with PBS containing 0.05% polysorbate, pH 7.4 (wash buffer) and blocked with PBS containing 0.5% BSA, pH 7.4, at 150 μl/well. After a one-hour incubation at room temperature, plates were washed with wash buffer. Human FcγRIII was added to the plates at 0.25 μg/ml, 100 μl/well, in PBS containing 0.5% BSA, 0.05% polysorbate 20, pH 7.4. (assay buffer). The plates were incubated for one hour and washed with wash buffer. Antibodies were incubated with goat F(ab′)₂ anti-K (Cappel, ICN Pharmaceuticals, Inc., Aurora, Ohio) at a 1:2 (w/w) ratio for 1 hour to form antibody complexes. Eleven […] serial dilutions of complexed IgG antibodies (0.85-50000 ng/ml in threefold serial dilution) in assay buffer were added to the plates. After a two-hour incubation, plates were washed with wash buffer. Bound IgG was detected by adding peroxidase labeled goat F(ab′)₂ anti-human IgG F(ab′)₂ (Jackson ImmunoResearch, West Grove, Pa.) at 100 μl/well in assay buffer. After a one-hour incubation, plates were washed with wash buffer and the substrate 3,3′,5,5′-tetramethyl benzidine (TMB) (Kirkegaard & Perry Laboratories) was added at 100 μl/well. The reaction was stopped by adding 1 M phosphoric acid at 100 μl/well. Absorbance was read at 450 nm on a multiskan Ascent reader (Thermo Labsystems, Helsinki, Finland). The absorbance at the midpoint of the standard curve (mid-OD) was calculated. The corresponding concentrations of standard and samples at this mid-OD were determined from the titration curves using a four-parameter nonlinear regression curve-fitting program (KaleidaGraph, Synergy software, Reading, Pa.). The relative activity was calculated by dividing the mid-OD concentration of standard by that of sample.

[4] = target: T2, human FcγRIII (V158), high affinity …; experiment: as above
Description: as §1

[5] = target: T1, human FcγRIII (F158), low affinity …; experiment: FcγRIII binding ELISA; relative to control 2H7.v511 antibody pools with about 5% nonfucosylation
Description: as §1, with “Plates” for “MaxiSorp 96-well microwell plates (Nunc, Roskilde, Denmark) were coated with 2 μg/ml anti-GST (clone 8E2.1.1, Genentech), at 100 μl/well in 50 mM carbonate buffer, pH 9.6, at 4° C. overnight. Plates”
(§2) A FcγRIII binding assay was done with antibody 2H7.v511 containing either 65% nonfucosylation (from transient run) or 94-95% nonfucosylation (from best stable clone RNAi2.4-3d).

[6] = target: T2, human FcγRIII (V158), high affinity …; experiment: as above
Description: as §1, with “Plates” for “MaxiSorp 96-well microwell plates (Nunc, Roskilde, Denmark) were coated with 2 μg/ml anti-GST (clone 8E2.1.1, Genentech), at 100 μl/well in 50 mM carbonate buffer, pH 9.6, at 4° C. overnight. Plates”
as §2

T2 sequence (P08637 17-208 F176V): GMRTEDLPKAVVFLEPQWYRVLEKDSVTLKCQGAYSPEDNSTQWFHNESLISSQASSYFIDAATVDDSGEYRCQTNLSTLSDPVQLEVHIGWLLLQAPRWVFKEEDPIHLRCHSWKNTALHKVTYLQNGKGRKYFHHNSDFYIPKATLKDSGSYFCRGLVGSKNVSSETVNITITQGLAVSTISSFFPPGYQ
T1 sequence (P08637 17-208): as the sequence (P08637 17-208 F176V) above, with V160F counted along it

fold increase in binding affinity [1]: 6 fold | fold increase in binding affinity [2]: 4 fold
B1: humanized anti-CD20 antibody 2H7.v16, antibody pool with 35% to 37% nonfucosylation (from RNAi2 / RNAi4 transiently transfected clone #60 cells) (antibody, human IgG1, kappa)
heavy: not shown
light: DIQMTQSPSSLSASVGDRVTITCRASSSVSYMHWYQQKPGKAPKPLIYAPSNLASGVPSRFSGSGSGTDFTLTISSLQPEDFATYYCQQWSFNPPTFGQGTKVEIKRTVAAPSVFIFPPSDEQLKSGTASVVCLLNNFYPREAKVQWKVDNALQSGNSQESVTEQDSKDSTYSLSSTLTLSKADYEKHKVYACEVTHQGLSSPVTKSFNRGEC
modifications: N-linked glycan at Asn297; about 35 to 37% nonfucosylated
notes: differs only in fucose content of the Fc glycan; In the ELISA the IgG was complexed with goat F(ab')2 anti-kappa; RNAi2 and RNAi4 pools are reported together; also called 2H7 antibody pool with 35% to 37% nonfucosylation; lower fucose containing 2H7 antibodies

Binding (fold) [3]: 32.4 fold | Binding (fold) [4]: 10.4 fold
B2: humanized 2H7.v16 antibody from stable RNAi4 clone 7C (63% non-fucosylation) (antibody, human IgG1, kappa)
heavy: not shown
light: B1 light
modifications: N-linked glycan at Asn297; 63% non-fucosylation
notes: Glycoform preparation of 2H7.v16 from clone 60 stably transfected with the RNAi4 construct

Binding (fold) [3]: 1 fold | Binding (fold) [4]: 1 fold
B3: humanized 2H7.v16 antibody from clone 'Control' of Table 1 (3% non-fucosylation) (antibody, human IgG1, kappa)
heavy: not shown
light: B1 light
modifications: N-linked glycan at Asn297; 3% non-fucosylation

fold increase in affinity [5]: 9.8 fold | fold increase in affinity [6]: 6.8 fold
B4: humanized anti-CD20 antibody 2H7.v511 containing 94-95% nonfucosylation (from best stable clone RNAi2.4-3d) (antibody, human IgG1, kappa)
heavy: EVQLVESGGGLVQPGGSLRLSCAASGYTFTSYNMHWVRQAPGKGLEWVGAIYPGNGATSYNQKFKGRFTISVDKSKNTLYLQMNSLRAEDTAVYYCARVVYYSYRYWYFDVWGQGTLVTVSSASTKGPSVFPLAPSSKSTSGGTAALGCLVKDYFPEPVTVSWNSGALTSGVHTFPAVLQSSGLYSLSSVVTVPSSSLGTQTYICNVNHKPSNTKVDKKVEPKSCDKTHTCPPCPAPELLGGPSVFLFPPKPKDTLMISRTPEVTCVVVDVSHEDPEVKFNWYVDGVEVHNAKTKPREEQYNATYRVVSVLTVLHQDWLNGKEYKCKVSNAALPAPIAATISKAKGQPREPQVYTLPPSREEMTKNQVSLTCLVKGFYPSDIAVEWESNGQPENNYKTTPPVLDSDGSFFLYSKLTVDKSRWQQGNVFSCSVMHEALHNHYTQKSLSLSPGK
light: B1 light with M32L, S91A
modifications: N-linked glycan at Asn297; 94-95% nonfucosylation
notes: In the ELISA the IgG was complexed with goat F(ab')2 anti-kappa; also called hu2H7.v511; 95% nonfucosylated material

Binding (fold) [3]: 1 fold | Binding (fold) [4]: 1 fold
B5: humanized 2H7.v16 antibody from clone 'Parent' of Table 1 (5% non-fucosylation) (antibody, human IgG1, kappa)
heavy: not shown
light: B1 light
modifications: N-linked glycan at Asn297; 5% non-fucosylation

Binding (fold) [3]: 34 fold | Binding (fold) [4]: 10.1 fold
B6: humanized 2H7.v16 antibody from stable RNAi4 clone 6C (60% non-fucosylation) (antibody, human IgG1, kappa)
heavy: not shown
light: B1 light
modifications: N-linked glycan at Asn297; 60% non-fucosylation
notes: as for B2

Binding (fold) [3]: 24.2 fold | Binding (fold) [4]: 7.5 fold
B7: humanized 2H7.v16 antibody from stable RNAi4 clone 5B (45% non-fucosylation) (antibody, human IgG1, kappa)
heavy: not shown
light: B1 light
modifications: N-linked glycan at Asn297; 45% non-fucosylation
notes: as for B2

fold increase in affinity [5]: 6.2 fold | fold increase in affinity [6]: 4.8 fold
B8: humanized anti-CD20 antibody 2H7.v511 containing 65% nonfucosylation (from transient run) (antibody, human IgG1, kappa)
heavy: B4 heavy
light: B1 light with M32L, S91A
modifications: N-linked glycan at Asn297; 65% nonfucosylation
notes: In the ELISA the IgG was complexed with goat F(ab')2 anti-kappa; also called hu2H7.v511; v511-NF

Binding (fold) [3]: 52.4 fold | Binding (fold) [4]: 13.7 fold
B9: humanized 2H7.v16 antibody from stable RNAi4 clone 5F (70% non-fucosylation) (antibody, human IgG1, kappa)
heavy: not shown
light: B1 light
modifications: N-linked glycan at Asn297; 70% non-fucosylation
notes: as for B2
